Target: the molecule itself
Experiment: non-reducing SDS-PAGE and immunoblot

B1: PRDX4, murine islets (enzyme, mouse (endogenous in murine islets), UniProt O08807 41-274, looked up)
chain: LESDERFRTRENECHFYAGGQVYPGEASRVSVADHSLHLSKAKISKPAPYWEGTAVINGEFKELKLTDYRGKYLVFFFYPLDFTFVCPTEIIAFGDRIEEFKSINTEVVACSVDSQFTHLAWINTPRRQGGLGPIRIPLLSDLNHQISKDYGVYLEDSGHTLRGLFIIDDKGVLRQITLNDLPVGRSVDETLRLVQAFQYTDKHGEVCPAGWKPGSETIIPDPAGKLKYFDKLN
  stoichiometry N: 2

— doi:10.1101/699132 (bioRxiv, 2020)
